# Measured values as given in publication PMC6971075, “Augmentation of Bri2 molecular chaperone activity against amyloid-β reduces neurotoxicity in mouse hippocampus in vitro” (Communications Biology, 2020).
# T1: rh wild-type Bri2 BRICHOS-mCherry (human, UniProt Q9Y287 113-231)
# T1 construct: Bri2 BRICHOS domain, human (rh = recombinant human), Bri2 residues 113-231; Used as isolated oligomers; also called rh Bri2 BRICHOS-mCherry; source: E. coli SHuffle T7, purified (same protocol as R221E; oligomers isolated on Superdex 200 PG); not shown: His6, N-terminal, cleaved; NT*, N-terminal, cleaved; mCherry, C-terminal, kept
# T1 sequence (looked up): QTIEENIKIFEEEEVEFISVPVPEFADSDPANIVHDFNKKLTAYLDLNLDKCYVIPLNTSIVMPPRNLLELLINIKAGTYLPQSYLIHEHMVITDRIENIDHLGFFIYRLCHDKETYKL
# B1: rh wild-type Bri2 BRICHOS (domain or fragment, human, UniProt Q9Y287 113-231, looked up)
# chain: QTIEENIKIFEEEEVEFISVPVPEFADSDPANIVHDFNKKLTAYLDLNLDKCYVIPLNTSIVMPPRNLLELLINIKAGTYLPQSYLIHEHMVITDRIENIDHLGFFIYRLCHDKETYKL
# notes: Bri2 BRICHOS domain, human (rh = recombinant human), Bri2 residues 113-231; also called rh wt Bri2 BRICHOS; wild-type monomers; source: E. coli SHuffle T7, purified (Ni-NTA, thrombin cleavage, second Ni-NTA, SEC); not shown: His6, N-terminal, cleaved; NT*, N-terminal, cleaved
# B2: rh Bri2 BRICHOS R221E monomer (domain or fragment, human, UniProt Q9Y287 113-231, looked up)
# chain: QTIEENIKIFEEEEVEFISVPVPEFADSDPANIVHDFNKKLTAYLDLNLDKCYVIPLNTSIVMPPRNLLELLINIKAGTYLPQSYLIHEHMVITDRIENIDHLGFFIYELCHDKETYKL
# modifications: intramolecular disulfide bond between the two conserved Cys (monomer, by ESI-MS)
# notes: Bri2 BRICHOS domain, human (rh = recombinant human), Bri2 residues 113-231, with R221E; Used here for the isolated monomer and as the subunit in the rows on self-association (oligomers, dimers); Measured mass 14,050.2 Da; also called rh Bri2 R221E monomer; source: E. coli SHuffle T7, purified (Ni-NTA, thrombin cleavage, second Ni-NTA, SEC); not shown: His6, N-terminal, cleaved; NT*, N-terminal, …
# Legend:
# [1] = molecular target: the molecule itself; test: SEC; isolated monomers at low concentration (~7.5 µM) and high concentrations (54 µM for R221E, 30 µM for wt)
# [2] = molecular target: T1, rh wild-type Bri2 BRICHOS-mCherry; test: not stated; coincubation of R221E monomers with Bri2 BRICHOS-mCherry oligomers at rising molar ratios; release of wild-type monomers followed (Supplementary Fig. 5); settings: both partners purified
binder,measurement,setting,value
B1,stoichiometry N,[1],2
B2,molar ratio of mutant to wild-type oligomers at which the release of wild-type monomers saturates,[2],~2 mol/mol
